In patent publication US20210032299A1:
Starred links: 1 amine or outer side, 2 acyl side, 3 side chain; linkers in the order of their positions; H or OH if unused. Non-standard residues stand in square brackets, D forms with d. Groups on a side chain read outwards from the residue. No end group written: not given here. *: point of attachment. C20 diacid = O=C(O)CCCCCCCCCCCCCCCCCCC(=O)*; αMePhe(2-F) = C[C@](N)(Cc1ccccc1F)C(=O)O; γGlu = O=C(O)[C@H](CCC(=O)[*:2])N[*:1]; αMeF = C[C@](N)(Cc1ccccc1)C(=O)O; 4Pal = N[C@@H](Cc1ccncc1)C(=O)O; αMeL = CC(C)C[C@](C)(N)C(=O)O; AEEA = NCCOCCOCC(=O)O; Aib = CC(C)(N)C(=O)O

Columns and labels:
[1] = target: T1, human GLP-1 receptor (human), P43220; experiment: SPA, displacement of [125I]-GLP-1 from hGLP-1R membranes, 0.1% bacitracin
T1 chain: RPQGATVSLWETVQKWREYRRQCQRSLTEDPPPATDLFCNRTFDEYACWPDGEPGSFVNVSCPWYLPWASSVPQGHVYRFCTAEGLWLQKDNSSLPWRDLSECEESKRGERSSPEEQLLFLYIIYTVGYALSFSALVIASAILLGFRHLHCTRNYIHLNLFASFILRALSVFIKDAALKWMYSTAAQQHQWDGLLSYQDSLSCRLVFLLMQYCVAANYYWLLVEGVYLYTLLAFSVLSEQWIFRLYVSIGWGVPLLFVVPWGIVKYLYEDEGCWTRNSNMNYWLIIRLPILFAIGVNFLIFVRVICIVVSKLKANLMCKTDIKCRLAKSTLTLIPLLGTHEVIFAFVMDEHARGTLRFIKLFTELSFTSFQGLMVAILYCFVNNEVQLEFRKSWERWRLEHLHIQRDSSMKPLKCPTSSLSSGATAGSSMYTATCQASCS

[2] = target: human glucagon receptor (human), P47871; experiment: SPA, displacement of [125I]-Gcg from hGcgR membranes, 0.1% bacitracin
human glucagon receptor (human), P47871, sequence (P47871 26-477): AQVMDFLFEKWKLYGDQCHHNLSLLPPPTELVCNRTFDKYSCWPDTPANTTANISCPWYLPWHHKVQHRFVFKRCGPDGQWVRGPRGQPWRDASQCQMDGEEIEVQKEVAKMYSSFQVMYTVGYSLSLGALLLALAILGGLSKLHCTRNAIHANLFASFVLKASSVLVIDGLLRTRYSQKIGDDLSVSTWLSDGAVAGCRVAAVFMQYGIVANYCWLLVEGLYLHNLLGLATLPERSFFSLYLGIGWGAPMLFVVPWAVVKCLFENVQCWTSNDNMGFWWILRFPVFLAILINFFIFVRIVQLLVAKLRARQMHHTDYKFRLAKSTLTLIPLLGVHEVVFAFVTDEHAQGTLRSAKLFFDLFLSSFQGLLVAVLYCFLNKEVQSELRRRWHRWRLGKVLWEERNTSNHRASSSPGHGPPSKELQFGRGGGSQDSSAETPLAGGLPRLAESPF

[3] = target: T2, human glucose-dependent insulinotropic polypeptide (GIP) receptor (human), P48546; experiment: SPA, displacement of [125I]-GIP from hGIPR membranes, 0.1% bacitracin
T2 chain: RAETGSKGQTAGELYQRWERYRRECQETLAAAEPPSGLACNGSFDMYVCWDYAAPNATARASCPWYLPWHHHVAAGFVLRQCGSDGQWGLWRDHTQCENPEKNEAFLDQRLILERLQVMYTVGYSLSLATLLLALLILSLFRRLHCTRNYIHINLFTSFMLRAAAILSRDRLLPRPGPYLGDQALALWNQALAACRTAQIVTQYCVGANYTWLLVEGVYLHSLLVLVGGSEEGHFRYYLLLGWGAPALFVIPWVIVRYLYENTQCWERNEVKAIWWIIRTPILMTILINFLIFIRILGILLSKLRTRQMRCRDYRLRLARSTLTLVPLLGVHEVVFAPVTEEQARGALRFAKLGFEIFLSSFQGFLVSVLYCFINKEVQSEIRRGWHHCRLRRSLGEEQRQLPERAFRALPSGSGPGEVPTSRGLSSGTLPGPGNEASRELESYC

B1: Example 98 (peptide)
peptide: Y[Aib]EGT[αMePhe(2-F)]ISDYSIALDKIHQ[Aib]EFVNYK([AEEA-AEEA-γGlu-C20 diacid])LAGGPSSGAPPPS-NH2
modifications: N-terminus assumed
SMILES: CC[C@H](C)[C@H](NC(=O)[C@H](CO)NC(=O)[C@H](Cc1ccc(O)cc1)NC(=O)[C@H](CC(=O)O)NC(=O)[C@H](CO)NC(=O)[C@@H](NC(=O)[C@](C)(Cc1ccccc1F)NC(=O)[C@@H](NC(=O)CNC(=O)[C@H](CCC(=O)O)NC(=O)C(C)(C)NC(=O)[C@@H](N)Cc1ccc(O)cc1)[C@@H](C)O)[C@@H](C)CC)C(=O)N[C@@H](C)C(=O)N[C@@H](CC(C)C)C(=O)N[C@@H](CC(=O)O)C(=O)N[C@@H](CCCCN)C(=O)N[C@H](C(=O)N[C@@H](Cc1c[nH]cn1)C(=O)N[C@@H](CCC(N)=O)C(=O)NC(C)(C)C(=O)N[C@@H](CCC(=O)O)C(=O)N[C@@H](Cc1ccccc1)C(=O)N[C@H](C(=O)N[C@@H](CC(N)=O)C(=O)N[C@@H](Cc1ccc(O)cc1)C(=O)N[C@@H](CCCCNC(=O)COCCOCCNC(=O)COCCOCCNC(=O)CC[C@H](NC(=O)CCCCCCCCCCCCCCCCCCC(=O)O)C(=O)O)C(=O)N[C@@H](CC(C)C)C(=O)N[C@@H](C)C(=O)NCC(=O)NCC(=O)N1CCC[C@H]1C(=O)N[C@@H](CO)C(=O)N[C@@H](CO)C(=O)NCC(=O)N[C@@H](C)C(=O)N1CCC[C@H]1C(=O)N1CCC[C@H]1C(=O)N1CCC[C@H]1C(=O)N[C@@H](CO)C(N)=O)C(C)C)[C@@H](C)CC
**Q.** B1 was tested. Which Ki [1] did it give?
**A.** 311 nM

**Q.** And the Ki [2]?
**A.** 38.4 nM

**Q.** And the Ki [3]?
**A.** 0.0195 nM

B2: Example 97 (peptide)
peptide: Y[Aib]EGT[αMeF]ISDYSIALDKIHQ[Aib]EFVNYK([AEEA-AEEA-γGlu-C20 diacid])LAGGPSSGAPPPS-NH2
modifications: N-terminus assumed
SMILES: CC[C@H](C)[C@H](NC(=O)[C@H](CO)NC(=O)[C@H](Cc1ccc(O)cc1)NC(=O)[C@H](CC(=O)O)NC(=O)[C@H](CO)NC(=O)[C@@H](NC(=O)[C@](C)(Cc1ccccc1)NC(=O)[C@@H](NC(=O)CNC(=O)[C@H](CCC(=O)O)NC(=O)C(C)(C)NC(=O)[C@@H](N)Cc1ccc(O)cc1)[C@@H](C)O)[C@@H](C)CC)C(=O)N[C@@H](C)C(=O)N[C@@H](CC(C)C)C(=O)N[C@@H](CC(=O)O)C(=O)N[C@@H](CCCCN)C(=O)N[C@H](C(=O)N[C@@H](Cc1c[nH]cn1)C(=O)N[C@@H](CCC(N)=O)C(=O)NC(C)(C)C(=O)N[C@@H](CCC(=O)O)C(=O)N[C@@H](Cc1ccccc1)C(=O)N[C@H](C(=O)N[C@@H](CC(N)=O)C(=O)N[C@@H](Cc1ccc(O)cc1)C(=O)N[C@@H](CCCCNC(=O)COCCOCCNC(=O)COCCOCCNC(=O)CC[C@H](NC(=O)CCCCCCCCCCCCCCCCCCC(=O)O)C(=O)O)C(=O)N[C@@H](CC(C)C)C(=O)N[C@@H](C)C(=O)NCC(=O)NCC(=O)N1CCC[C@H]1C(=O)N[C@@H](CO)C(=O)N[C@@H](CO)C(=O)NCC(=O)N[C@@H](C)C(=O)N1CCC[C@H]1C(=O)N1CCC[C@H]1C(=O)N1CCC[C@H]1C(=O)N[C@@H](CO)C(N)=O)C(C)C)[C@@H](C)CC
**Q.** What does the source list for B2?
**A.** Ki [1]: 570 nM; Ki [2]: 77.5 nM; Ki [3]: 0.0249 nM

B3: Example 117 (peptide)
peptide: Y[Aib]EGTFISDYSI[αMeL]LDKIHQ[Aib]DFVEYK([AEEA-AEEA-γGlu-C20 diacid])LEAGPSSGAPPPS-NH2
modifications: N-terminus assumed
SMILES: CC[C@H](C)[C@H](NC(=O)[C@H](CCCCN)NC(=O)[C@H](CC(=O)O)NC(=O)[C@H](CC(C)C)NC(=O)[C@](C)(CC(C)C)NC(=O)[C@@H](NC(=O)[C@H](CO)NC(=O)[C@H](Cc1ccc(O)cc1)NC(=O)[C@H](CC(=O)O)NC(=O)[C@H](CO)NC(=O)[C@@H](NC(=O)[C@H](Cc1ccccc1)NC(=O)[C@@H](NC(=O)CNC(=O)[C@H](CCC(=O)O)NC(=O)C(C)(C)NC(=O)[C@@H](N)Cc1ccc(O)cc1)[C@@H](C)O)[C@@H](C)CC)[C@@H](C)CC)C(=O)N[C@@H](Cc1c[nH]cn1)C(=O)N[C@@H](CCC(N)=O)C(=O)NC(C)(C)C(=O)N[C@@H](CC(=O)O)C(=O)N[C@@H](Cc1ccccc1)C(=O)N[C@H](C(=O)N[C@@H](CCC(=O)O)C(=O)N[C@@H](Cc1ccc(O)cc1)C(=O)N[C@@H](CCCCNC(=O)COCCOCCNC(=O)COCCOCCNC(=O)CC[C@H](NC(=O)CCCCCCCCCCCCCCCCCCC(=O)O)C(=O)O)C(=O)N[C@@H](CC(C)C)C(=O)N[C@@H](CCC(=O)O)C(=O)N[C@@H](C)C(=O)NCC(=O)N1CCC[C@H]1C(=O)N[C@@H](CO)C(=O)N[C@@H](CO)C(=O)NCC(=O)N[C@@H](C)C(=O)N1CCC[C@H]1C(=O)N1CCC[C@H]1C(=O)N1CCC[C@H]1C(=O)N[C@@H](CO)C(N)=O)C(C)C
**Q.** Which Ki [1] does the source give for B3 here?
**A.** 591 nM

**Q.** And the Ki [2]?
**A.** 685 nM

**Q.** And the Ki [3]?
**A.** 0.0722 nM

B4: Example 119 (peptide)
peptide: H-Y[Aib]EGT[αMePhe(2-F)]ISDYSILLDKIHQ[Aib]DFVE[4Pal]K([AEEA-AEEA-γGlu-C20 diacid])LEGGPSSGAPPPS-NH2
SMILES: CC[C@H](C)[C@H](NC(=O)[C@H](CO)NC(=O)[C@H](Cc1ccc(O)cc1)NC(=O)[C@H](CC(=O)O)NC(=O)[C@H](CO)NC(=O)[C@@H](NC(=O)[C@](C)(Cc1ccccc1F)NC(=O)[C@@H](NC(=O)CNC(=O)[C@H](CCC(=O)O)NC(=O)C(C)(C)NC(=O)[C@@H](N)Cc1ccc(O)cc1)[C@@H](C)O)[C@@H](C)CC)C(=O)N[C@@H](CC(C)C)C(=O)N[C@@H](CC(C)C)C(=O)N[C@@H](CC(=O)O)C(=O)N[C@@H](CCCCN)C(=O)N[C@H](C(=O)N[C@@H](Cc1c[nH]cn1)C(=O)N[C@@H](CCC(N)=O)C(=O)NC(C)(C)C(=O)N[C@@H](CC(=O)O)C(=O)N[C@@H](Cc1ccccc1)C(=O)N[C@H](C(=O)N[C@@H](CCC(=O)O)C(=O)N[C@@H](Cc1ccncc1)C(=O)N[C@@H](CCCCNC(=O)COCCOCCNC(=O)COCCOCCNC(=O)CC[C@H](NC(=O)CCCCCCCCCCCCCCCCCCC(=O)O)C(=O)O)C(=O)N[C@@H](CC(C)C)C(=O)N[C@@H](CCC(=O)O)C(=O)NCC(=O)NCC(=O)N1CCC[C@H]1C(=O)N[C@@H](CO)C(=O)N[C@@H](CO)C(=O)NCC(=O)N[C@@H](C)C(=O)N1CCC[C@H]1C(=O)N1CCC[C@H]1C(=O)N1CCC[C@H]1C(=O)N[C@@H](CO)C(N)=O)C(C)C)[C@@H](C)CC
**Q.** For B4, which Ki [1] is on record?
**A.** 723 nM

**Q.** What about the Ki [2] of the same binder?
**A.** 68.8 nM

**Q.** What about the Ki [3] of the same binder?
**A.** 0.129 nM
